Results on 18 sequences are retold here after the DeepSol protein solubility set.

The series can be described thus: soluble on expression in E. coli; label from the status in PepcDB or PDB records.
Take “SAVDRDIFGISGPTYLNPVNWNCEHNRRSVAACLVQAVYVLERDRQLGRQSVEALGPPWWEFFHFELIRKLVDDADLSIFGAIFEFNPPSSKESSADNAPRFVIAFRGTITEKETISRDIALDLHLVQNGLHRTSRFTIAMQAVQNVASVFPGSNIWLAGHSLGAGMAILTGRNMVKKGVLLESYLFNPPFVAAPIERISDERVKHGFRIARSVITAGLAIAMKGKGEGSSQRSVAEDSFHILSSWTPYLFVNPGDHICSEYIGYFQHRKNMEDLGAGFIEKLATQNSIGDLFYKALGWESEPLHLLPSADLIVNVSPSPDFKYAHGISQWWQPELNLQCSKYRYSVGA”: the “soluble on expression in E. coli” value is “soluble”. With “MGSSHHHHHHSSGLVPRGSHMEGRLLLLETPGNTRMSLAYDEAIYRSFQYGDKPILRFYRHDRSVIIGYFQVAEEEVDLDYMKKNGIMLARRYTGGGAVYHDLGDLNFSVVRSSDDMDITSMFRTMNEAVVNSLRILGLDARPGELNDVSIPVNKKTDIMAGEKKIMGAAGAMRKGAKLWHAAMLVHTDLDMLSAVLKVPDEKFRDKIAKSTRERVANVTDFVDVSIDEVRNALIRGFSETLHIDFREDTITEKEESLARELFDKKYSTEEWNMGLLRKEVV”, the “soluble on expression in E. coli” value is given as “soluble”. In the case of “MGHHHHHHSHMAFMVKSMVGGQLKNLTGSLGGGEDKGDGDKSAAEAQGMSREEYEEYQKQLVEEKMERDAQFTQRKAERATLRSHFRDKYRLPKNETDESQIQLAGGDVELPRELAKMIEEDTEEEEDKASVLGQLASLPGLDLSSLKDKAQTTLGDLKQSAEKCHIM”, the “soluble on expression in E. coli” value is given as “not soluble”.

Turning to “MDKIVIKGGNKLTGEVKVEGAKNAVLPILTASLLASDKPSKLVNVPALSDVETINNVLTTLNADVTYKKDENAVVVDATKTLNEEAPYEYVSKMRASILVMGPLLARLGHAIVALPGGCAIGSRPIEQHIKGFEALGAEIHLENGNIYANAKDGLKGTSIHLDFPSVGATQNIIMAASLAKGKTLIENAAKEPEIVDLANYINEMGGRITGAGTDTITINGVESLHGVEHAIIPDRIEAGTLLIAGAITRGDIFVRGAIKEHMASLVYKLEEMGVELDYQEDGIRVRAEGELQPVDIKTLPHPGFPTDMQSQMMALLLTANGHKVVTETVFENRFMHVAEFKRMNANINVEGRSAKLEGKSQLQGAQVKATDLRAAAALILAGLVADGKTSVTELTHLDRGYVDLHGKLKQLGADIERIND”, the “soluble on expression in E. coli” value is reported as “not soluble”. For “SENWDLSSDEMQDGNAPELDVIEEHNPVTRDDENANPEEVVGDTRSPVQNILGKFEGDINKRLHIKRKRMETYIKDSFKDSNVKLEQLWKTNKQERKKINNKFCEQYITTFQKFDMDVQKFNEEQEKSVNNYQKEQQALKLSKCSQSQTLEAIKDMHENYMEGLMNLETNNYNMLFDVDGELRKEMSVFKKDLMKHTLKYSSSFPSSD”, the “soluble on expression in E. coli” value is reported as “not soluble”.

In the case of “MKYLPQQDPQVFAAIEQERKRQHAKIELIASENFVSRAVMEAQGSVLTNKYAQGYPGRRYYGGCEYVDIVEELARERAKQLFGAEHANVQPHSGAQANMAVYFTVLEHGDTVLGMNLSHGGHLTHGSPVNFSGVQYNFVAYGVDPETHVIDYDDVREKARLHRPKLIVAAASAYPRIIDFAKFREIADEVGAYLMVDMAHIAGLVAAGLHPNPVPYAHFVTTTTHKTLRGPRGGMILCQEQFAKQIDKAIFPGIQGGPLMHVIAAKAVAFGEALQDDFKAYAKRVVDNAKRLASALQNEGFTLVSGGTDNHLLLVDLRPQQLTGKTAEKVLDEVGITVNKNTIPYDPESPFVTSGIRIGTAAVTTRGFGLEEMDEIAAIIGLVLKNVGSEQALEEARQRVAALTDGG”, the “soluble on expression in E. coli” value is recorded as “soluble”. Consider “GKTFPSRAYIDGTLSARVIAHEFGHNLGLSHAKALDCGDASVSNNCSVIEYGDSYDVMGTPDMGYINTYYKERMGWLNDAESPNILTATQDGLYEIAEYETQDITQNIALKIPRGVNPNSGLKEWFYVEYRQAMGYDQFLDDRSYMLFRGDVTDGVIVRLVEEGAEESYILHMKPNSDYSQVYGRKDWKDTALPVGDSFTDP”, for which the “soluble on expression in E. coli” value is given as “not soluble”.

Take “MIDRPDTGEGTNYLIVGSDSRAGMSAEEKKKLHTGSAEGKRTDSMMILHTGDNGSTLVSLPRDSDVEIPTFKGSTSGKTYPGTGRHVKLNAAYAEDGPELLVRTIEYNTGLHIDHYVEIGFAGFANIVDSVGGVEMTLDKGFKDTFSGADFKAGKQTLNGEQALAFVRTRHAFAASDLERTKNQQKFLSALAHQVATPSTVLNPFKLYPTLSSGLDTLIVDKDMGLFDLADMFWAMKGVTGGDGTSMNMPISGSSGGNLVWDKAKVKALVNELKNDEKVTVSGNLEHHHHHH”: the “soluble on expression in E. coli” value was “soluble”.

In the case of “MAHHHHHHMAITLPKLKYALNALSPHISEETLSFHYNKHHAGYVNKLNGLIKDTPLANKSLTDILKESTGAIFNNAAQIWNHSFYWDSMGPNCGGEPHGEIKEKIQEDFGSFNNFKDQFSNVLCGHFGSGWGWLALNKNNKLVILQTHDAGNPIKENTGIPILTCDVWEHAYYIDYRNDRLSYVKAWWNLVNWNFANENLKNALNK”, the “soluble on expression in E. coli” value was “soluble”. The entry for “GMSSKQHCVKLNDGHLIPALGFGTYKPKEVPKSKSLEAACLALDVGYRHVDTAYAYQVEEEIGQAIQSKIKAGVVKREDLFVTTKLWCTCFRPELVKPALEKSLKKLQLDYVDLYIMHYPVPMKSGDNDFPVNEQGKSLLDTVDFCDTWERLEECKDAGLVKSIGVSNFNHRQLERILNKPGLKYKPVCNQVECHLYLNQRKLLDYCESKDIVLVAYGALGTQRYKEWVDQNSPVLLNDPVLCDVAKKNKRSPALIALRYLIQRGIVPLAQSFKENEMRENLQVFGFQLSPEDMKTLDGLNKNFRYLPAEFLVDHPEYPFVEEY” is “soluble”; for “KRETDNGHDVFESFEQMEKTAFVIPSAYGYDIKGYHVAPHDTPNTIIICHGVTMNVLNSLKYMHLFLDLGWNVLIYDHRRHGQSGGKTTSYGFYEKDDLNKVVSLLKNKTNHRGLIGIHGESMGAVTALLYAGAHCSDGADFYIADCPFACFDEQLAYRLRAEYRLPSWPLLPIADFFLKLRGGYRAREVSPLAVIDKIEKPVLFIHSKDDDYIPVSSTERLYEKKRGPKALYIAENGEHAMSYTKNRHTYRKTVQEFLDNMNDSTE” it is “not soluble”; for “MITLNHIAKTYYQGKLAVPILHGISLTIQSGEFVSIMGPSGSGKSTLMNIIGCLDRPTEGEYMLNDVNILTADESKLALIRNEYIGFVFQHFNLLPRLSAVENVELPLVYGGIKKAERRKRALEALGKVGLADRVHHLPNELSGGQKQRVAIARAIANNPTFIMADEPTGALDTKSGEQVMDIFTKLNAEGTTIVMVTHEEEVAAYSSRRIVLRDGKITEDRRCAV” it is “not soluble”. As to “MADSVLKEVNCGRPEKIPKLDKACEGSKSSWKHLKLGNVEDDEYLRQYCLFHYEFHKSEGFTVDWEKYDYMFHIRPLENSPPISDIRTNADVIRDVTLFAIEKHNEAHGSKLVFVEHVSANFKFANGLLCWLTFWATDMASSAPTSQIYQVELWRRGKQFEIPIFRVKPKDEEMDDVEVKPPSPMPYDDYDKPPVVFVRAAPEDGVPFVFDRTGALYDLYRSGL”, the “soluble on expression in E. coli” value was “soluble”. “MGSDKIHHHHHHMVDSLKKPGFEEIRPGVKVPAKETLLTPRFYTTDFDEMARMDISVNEDELLAILEEFRTDYNRHHFVRDAEFEKSWDHIDGDTRRLFVEFLERSCTAEFSGFLLYKELGRRLKDKSPVLAECFNLMSRDEARHAGFLNKAMSDFNLSLDLGFLTKSRNYTFFKPKFIFYATYLSEKIGYWRYITIYRHLEAHPEDRIYPIFRFFENWCQDENRHGDFFDAIMKSQPQMLNDWKAKLWSRFFLLSVFATMYLNDIQRKDFYASIGLDARDYDIYVIKKTNETAGRVFPVILDVDSPEFYERLDICVENSEKLSAIASSNTPKFLQFFQKLPVLASTGWQLLRLYLMKPIDAVSAQGAAR”: the “soluble on expression in E. coli” value is “not soluble”. The same measure for “MGSDKIHHHHHHMEPAELLKKIHQLPRLPKAVSELLEAVNNDQISIKDIAAKVSQDPLMSARVLRLANSSYFGANRKVASIDAAVVRLGMQTLRNLVIASAVVGAVPKAEGVDLGGFWGATFEVALYSQELAKHTHIPPEEAFTCGILHNIGDLFIATAAPDAAKAIDKAVMAGADKQETELKILDFDAATIGALLAQSWRFTDKLAAGIANQYQPKEAELYSDLAGLMYMAKALFSGWDEIEDDAITGWLSVQAMNAGLEMDMSDLAADLLKVKGSGLEMGQLLA”: “not soluble”; for “MAHHHHHHMQDHMFAKSGVPANGAGLGQNYYTRDLITEVPTIIQIVPVSSEALATQRSPPKGTSDTFKISLDDVEPTAGWLSDRNNASLDICFMHSFGKCYGKIREKDPRTCHQIHVKRNVLDNLRKYYTNPQRNYFCRTMKANVTEKFAQVLSLLARRRIGLRYLEFRTEDIEVTAGSTEYEVQYRLWLVSDVEPQSRSRAQAANILTDNFISSSNLCWDFALTGRCCKGASCPDLHGHVAKALTKDRYVKAALAEMGKKDSLVPPTETTQPGKTPRVCQPSTSAPQQFPPPPPMPQQCASFIVSSPISPPYCFSSLPAASGMSAPSPNPTLAAFPLDMSSLQGTPCFLVDKGSDNVFRLITQSQFASFGNDAS”: “not soluble”; for “IPMRLLSDCPQFSRKTVKLLTNGGDMLELCYELRLPFVHWISVNQKSSFKRYEISHVYRRAIGHSPPNPCLQADFDIVGGTLSLTEAEVLKVIVDITTHIFHRGSCDIHLNHGDLLDAIWSWAGIKAEHRRKVAELLSMMGSLRPQSSERKLKWVFIRRQLLQELKLPEAVVNRLQTVASRFCGDADQALPRLRGALRADRPTRKALDELSNLLTYLRVWRIEEHVHIDVLMPPTESYHRNLFFQVFLTKENSSGTSNDGVLLAVGGRYDWLVQEVCDREHKMNLPGAVGVSLALETIFQHLPMDLRPIRNEVSTSVLVCSRGGGGLLVQRMELVAELWEKSIKAEFVPTPDPSLTEQYEYANEHEIKCLVIITESGVAQNQIEFVKVRHLELKKEKVVGR”: “soluble”. Regarding “MAHHHHHHMPETTHVTNDAAVPQKHIVEKPHLMDLFRSSASFAKIIAYLQGCSDSVNGTPRSARMVQKASELHPTVRFFVETFFPHLHKIVEEVPLQDMKKQRFGNRAFRVFHERLEADVGGLMQQLVLTLPARSGERSEEEQRCLAVELAEYIKDSFGNSTRIDYGTGHELHFFVVIMICLEECGDAGGTLQAEPTTIVSLNFPQPAPVLVDKRDRVCRLRQGMVFDVFGAYLTFMRRLQKHYHLEPAGSHGVWGLDDYHHLPFIFGAAQLIGKEVPHKTDDSGNGKGYGAILPKHVCEENAVRLHADEYFYFAQVAWVRENKTGPFFEHSSMLYNISGVESWQKIYTGMVKMYAAEVLSKFNVVQHLLFGTHLPWPPDV”, the “soluble on expression in E. coli” value was “soluble”.
